Assay in all cases: purified protein
Substrate in series [1]: O=C1N[C@@H](Cc2c[nH]c3ccccc23)C(=O)N2C3Nc4ccccc4C3(C34C[C@H]5C(=O)N[C@@H](Cc6c[nH]c7ccccc67)C(=O)N5C3Nc3ccccc34)C[C@@H]12
The conditions noted are these: 1 mM DMAPP, 5 mM CaCl2, Tris-HCl pH 7.5, 37 °C.

Substrate in series [2]: CC(C)=CCOP(=O)(O)OP(=O)(O)O
The following applies: 1 mM tetratryptomycin A (3) as prenyl acceptor, 5 mM CaCl2, Tris-HCl pH 7.5, 37 °C, 30 min, formation of 3a2.

Substrate in series [3]: O=C1N[C@@H](Cc2cn(C34C[C@H]5C(=O)N[C@@H](Cc6c[nH]c7ccccc67)C(=O)N5C3Nc3ccccc34)c3ccccc23)C(=O)N[C@H]1Cc1c[nH]c2ccccc12
The conditions noted are these: 1 mM DMAPP, 5 mM CaCl2, Tris-HCl pH 7.5, 37 °C, 30 min, formation of monoprenylated 4a1.

[4] abbreviates: 20 min, formation of diprenylated 5a2.
[5] abbreviates: 30 min, formation of diprenylated 3a2.

Our source for the Km, kcat and kcat/Km values is PMC10589136, “Prenylation of dimeric cyclo-L-Trp-L-Trp by the promiscuous cyclo-L-Trp-L-Ala prenyltransferase EchPT1” (Applied Microbiology and Biotechnology, 2023).

B1: EchPT1 (Aspergillus ruber) (protein)
chain: MPSEVLTSYYDYPTHDQEAWWRDTGPLFGRFLKGAGYDVHTQYQYLVFFIKNILPSLGPYPARWRSTITPTGLPIEYSLNFQLNSRPLLRIGFEPLSRFSGTPQDPYNKIAAADLLNQLSKLQLHEFDTQLFNHFTNEFELSKSESESLQKQGGINGKSTVRSQTAFGFDLKGGRVAVKGYAFAGLKNRATGTPVGQLISNSIRNLEPQMHCWDSFSILNSYMEESDGWNEYSFVSWDCVDIERSRLKLYGVHNAVTWDKVKEMWTLGGRIENNATIKTGLELLQHMWSLLQINEGDRDYKGGFAADNGGKTLPIIWNYELNKGSPHPAPKFYFPVHGENDLQVSKSISEFFTHLGWQDHARQYPHLLRQIYPNQNISQTERLQAWISFAYNERTGPYLSVYYYSAERPPWGSDQVK
By Km is commonly meant the substrate concentration at which the rate is half of its maximum. A word on the kcat: it is the maximal rate divided by the concentration of active sites. For orientation: kcat/Km means the turnover number divided by the Michaelis constant. Consider B1, for which the Km in the series “purified protein [1]” (setting [4]) turned out to be 50 ± 5 µM; in the series “purified protein [1]” (setting [5]), 60 ± 7 µM; in the series “purified protein [2]”, 50 ± 7 µM; in “purified protein [3]”, 250 ± 30 µM. The kcat is 0.03 ± 0.001 s⁻¹ in “purified protein [1]” (setting [4]), 0.05 ± 0.0003 s⁻¹ in “purified protein [1]” (setting [5]), 0.03 ± 0.002 s⁻¹ in “purified protein [2]” and 0.14 ± 0.01 s⁻¹ in the series “purified protein [3]”. Further, the kcat/Km in “purified protein [1]” (setting [4]) was 600 M⁻¹ s⁻¹; in the series “purified protein [1]” (setting [5]) it was 833 M⁻¹ s⁻¹; in “purified protein [2]”, 600 M⁻¹ s⁻¹; in “purified protein [3]”, 560 M⁻¹ s⁻¹.
